Experimental data as given in patent US20220040232A1.

Tests used:
[1] = target: cell surface receptors for M1 peptide (TCR Vβ17) on expanded Vβ17+CD8+ T cells; experiment: flow cytometry, staining with M1 peptide loaded MHC class I tetramer and anti-human Vβ17 mAb; enriched Vβ17+CD8+ T cells from day 12 PBMCs stimulated with M1 peptide and IL-2
[2] = target: cell surface receptors for M1 peptide (TCR Vβ17) on expanded Vβ17+CD8+ T cells; experiment: tetramer staining, flow cytometry on enriched Vβ17+CD8+ T cells expanded with M1 peptide and IL-2
[3] = target: cell surface receptors for M1 peptide (TCR Vβ17) on expanded Vβ17+CD8+ T cells; experiment: flow cytometry, […] (91.6) […]

**Q.** Which results are given for “Influenza A derived Matrix protein (M1) peptide loaded MHC class I tetramer (MBL, Catalog No. TS-0012-2C) (peptide-MHC)”?
**A.** % M1 Tet-negative Vβ17+ cells among enriched Vβ17+CD8+ T cells [1]: 11.9%; % M1 Tet-positive Vβ17+ cells among enriched Vβ17+CD8+ T cells [1]: 86.8%; percent of expanded Vβ17+CD8+ T cells positive for the tetramer [2]: 86%; % M1 Tet-negative Vβ17+ cells among gated Vβ17+CD8+ T cells [3]: 11.9%; % M1 Tet-positive Vβ17+ cells among gated Vβ17+CD8+ T cells [3]: 86.8%
